Measured values: IntAct's records for PubMed 25910212

B1: Keratin, type II cytoskeletal 6A (Homo sapiens), P02538 (parent)
chain: MASTSTTIRSHSSSRRGFSANSARLPGVSRSGFSSVSVSRSRGSGGLGGACGGAGFGSRSLYGLGGSKRISIGGGSCAISGGYGSRAGGSYGFGGAGSGFGFGGGAGIGFGLGGGAGLAGGFGGPGFPVCPPGGIQEVTVNQSLLTPLNLQIDPTIQRVRAEEREQIKTLNNKFASFIDKVRFLEQQNKVLETKWTLLQEQGTKTVRQNLEPLFEQYINNLRRQLDSIVGERGRLDSELRGMQDLVEDFKNKYEDEINKRTAAENEFVTLKKDVDAAYMNKVELQAKADTLTDEINFLRALYDAELSQMQTHISDTSVVLSMDNNRNLDLDSIIAEVKAQYEEIAQRSRAEAESWYQTKYEELQVTAGRHGDDLRNTKQEIAEINRMIQRLRSEIDHVKKQCANLQAAIADAEQRGEMALKDAKNKLEGLEDALQKAKQDLARLLKEYQELMNVKLALDVEIATYRKLLEGEECRLNGEGVGQVNISVVQSTVSSGYGGASGVGSGLGLGGGSSYSYGSGLGVGGGFSSSSGRAIGGGLSSVGGGSSTIKYTTTSSSSRKSYKH
partner: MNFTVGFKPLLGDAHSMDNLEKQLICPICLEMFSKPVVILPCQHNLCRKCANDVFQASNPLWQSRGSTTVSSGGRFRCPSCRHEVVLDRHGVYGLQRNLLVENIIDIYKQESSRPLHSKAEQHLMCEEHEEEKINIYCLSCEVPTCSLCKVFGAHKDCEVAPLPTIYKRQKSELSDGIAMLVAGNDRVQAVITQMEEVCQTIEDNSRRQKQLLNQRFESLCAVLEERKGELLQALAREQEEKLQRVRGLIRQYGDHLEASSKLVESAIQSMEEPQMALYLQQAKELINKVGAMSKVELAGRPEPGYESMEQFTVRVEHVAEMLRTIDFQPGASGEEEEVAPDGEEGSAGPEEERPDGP
B2: Aspartoacylase (Homo sapiens), P45381 (parent)
chain: MTSCHIAEEHIQKVAIFGGTHGNELTGVFLVKHWLENGAEIQRTGLEVKPFITNPRAVKKCTRYIDCDLNRIFDLENLGKKMSEDLPYEVRRAQEINHLFGPKDSEDSYDIIFDLHNTTSNMGCTLILEDSRNNFLIQMFHYIKTSLAPLPCYVYLIEHPSLKYATTRSIAKYPVGIEVGPQPQGVLRADILDQMRKMIKHALDFIHHFNEGKEFPPCAIEVYKIIEKVDYPRDENGEIAAIIHPNLQDQDWKPLHPGDPMFLTLDGKTIPLGGDCTVYPVFVNEAAYYEKKEAFAKTTKLTLNAKSIRCCLH
B3: Keratin, type II cytoskeletal 6A (Homo sapiens), P02538 (parent)
chain: B1 chain

Variants of: B1
Conditions: with tri54_human TRIM54, Q9BYV2

effect of a mutation on the interaction | Variant
disrupting interaction strength | A463P
with no effect | N21S

Variants of: B2
Conditions: with keap1_human KEAP1, Q14145
Chain of keap1_human KEAP1, Q14145 (Q14145 whole entry): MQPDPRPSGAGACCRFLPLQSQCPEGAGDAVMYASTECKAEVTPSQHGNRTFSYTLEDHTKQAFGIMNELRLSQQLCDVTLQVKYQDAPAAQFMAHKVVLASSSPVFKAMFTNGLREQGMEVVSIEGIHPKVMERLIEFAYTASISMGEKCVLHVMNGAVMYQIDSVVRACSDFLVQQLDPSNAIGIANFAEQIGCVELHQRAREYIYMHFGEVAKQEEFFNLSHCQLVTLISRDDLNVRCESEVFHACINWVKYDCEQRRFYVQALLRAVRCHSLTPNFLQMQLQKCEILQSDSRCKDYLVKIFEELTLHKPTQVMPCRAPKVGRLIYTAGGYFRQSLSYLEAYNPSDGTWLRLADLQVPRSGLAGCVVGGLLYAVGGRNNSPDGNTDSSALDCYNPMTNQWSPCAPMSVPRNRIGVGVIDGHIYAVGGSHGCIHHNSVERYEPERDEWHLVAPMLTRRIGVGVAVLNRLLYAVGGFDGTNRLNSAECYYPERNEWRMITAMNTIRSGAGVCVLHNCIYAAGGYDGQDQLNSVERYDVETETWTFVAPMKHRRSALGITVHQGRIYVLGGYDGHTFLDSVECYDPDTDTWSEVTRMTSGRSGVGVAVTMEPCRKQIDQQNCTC

effect of a mutation on the interaction | Variant
disrupting interaction strength | E285A
with no effect | E24G
with no effect | M195R

Variants of: B2
Conditions: with keap1_human KEAP1, Q14145
Remark: another data set of the same source

effect of a mutation on the interaction | Variant
causing an interaction | E285A
causing an interaction | E24G
causing an interaction | M195R

Variants of: B3
Conditions: with KRT15, P19012
Chain of KRT15, P19012 (P19012 whole entry): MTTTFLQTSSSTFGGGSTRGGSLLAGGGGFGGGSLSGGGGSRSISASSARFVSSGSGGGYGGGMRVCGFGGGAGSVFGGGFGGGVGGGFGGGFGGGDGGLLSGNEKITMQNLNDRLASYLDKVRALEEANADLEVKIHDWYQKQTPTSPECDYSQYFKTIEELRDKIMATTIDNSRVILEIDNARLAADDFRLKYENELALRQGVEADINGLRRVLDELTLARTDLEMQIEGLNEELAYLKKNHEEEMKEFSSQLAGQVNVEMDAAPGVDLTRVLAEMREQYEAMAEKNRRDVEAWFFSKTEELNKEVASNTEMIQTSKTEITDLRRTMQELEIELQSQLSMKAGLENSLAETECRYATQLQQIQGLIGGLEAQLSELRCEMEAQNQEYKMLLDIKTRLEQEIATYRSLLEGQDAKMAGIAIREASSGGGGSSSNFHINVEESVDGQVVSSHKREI

effect of a mutation on the interaction | Variant
with no effect | I462S
with no effect | F174V
with no effect | A463P
with no effect | N171K

Variants of: B3
Conditions: with KRT40, Q6A162
Chain of KRT40, Q6A162 (Q6A162 whole entry): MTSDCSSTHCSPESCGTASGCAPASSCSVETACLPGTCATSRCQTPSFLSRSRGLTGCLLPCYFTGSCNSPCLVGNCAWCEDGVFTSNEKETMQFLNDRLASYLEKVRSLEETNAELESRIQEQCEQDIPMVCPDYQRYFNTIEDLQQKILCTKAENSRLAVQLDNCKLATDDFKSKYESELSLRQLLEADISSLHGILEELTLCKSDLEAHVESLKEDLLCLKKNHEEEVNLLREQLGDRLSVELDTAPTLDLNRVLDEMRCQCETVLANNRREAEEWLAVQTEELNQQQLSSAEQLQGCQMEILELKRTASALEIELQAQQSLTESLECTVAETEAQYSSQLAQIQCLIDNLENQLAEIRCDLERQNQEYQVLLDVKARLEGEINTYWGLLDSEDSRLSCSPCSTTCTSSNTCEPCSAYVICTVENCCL

effect of a mutation on the interaction | Variant
with no effect | I462S
with no effect | F174V
with no effect | A463P
with no effect | N171K

Variants of: B3
Conditions: with k1h1_human KRT31, Q15323
Chain of k1h1_human KRT31, Q15323 (Q15323 whole entry): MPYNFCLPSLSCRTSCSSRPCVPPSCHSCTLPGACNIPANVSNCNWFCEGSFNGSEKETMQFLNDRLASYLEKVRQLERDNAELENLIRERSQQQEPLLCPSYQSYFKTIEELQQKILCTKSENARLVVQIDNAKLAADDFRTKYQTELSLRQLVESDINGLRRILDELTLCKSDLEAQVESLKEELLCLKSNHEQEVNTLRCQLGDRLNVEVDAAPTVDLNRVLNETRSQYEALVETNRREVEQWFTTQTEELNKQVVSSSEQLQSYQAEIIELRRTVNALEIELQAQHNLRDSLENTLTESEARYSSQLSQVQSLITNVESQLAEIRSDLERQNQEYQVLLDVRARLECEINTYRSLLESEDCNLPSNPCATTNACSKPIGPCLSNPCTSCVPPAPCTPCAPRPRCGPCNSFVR

effect of a mutation on the interaction | Variant
with no effect | I462S
with no effect | F174V
with no effect | A463P
with no effect | N171K

Variants of: B3
Conditions: with tfp11_human TFIP11, Q9UBB9
Chain of tfp11_human TFIP11, Q9UBB9 (Q9UBB9 whole entry): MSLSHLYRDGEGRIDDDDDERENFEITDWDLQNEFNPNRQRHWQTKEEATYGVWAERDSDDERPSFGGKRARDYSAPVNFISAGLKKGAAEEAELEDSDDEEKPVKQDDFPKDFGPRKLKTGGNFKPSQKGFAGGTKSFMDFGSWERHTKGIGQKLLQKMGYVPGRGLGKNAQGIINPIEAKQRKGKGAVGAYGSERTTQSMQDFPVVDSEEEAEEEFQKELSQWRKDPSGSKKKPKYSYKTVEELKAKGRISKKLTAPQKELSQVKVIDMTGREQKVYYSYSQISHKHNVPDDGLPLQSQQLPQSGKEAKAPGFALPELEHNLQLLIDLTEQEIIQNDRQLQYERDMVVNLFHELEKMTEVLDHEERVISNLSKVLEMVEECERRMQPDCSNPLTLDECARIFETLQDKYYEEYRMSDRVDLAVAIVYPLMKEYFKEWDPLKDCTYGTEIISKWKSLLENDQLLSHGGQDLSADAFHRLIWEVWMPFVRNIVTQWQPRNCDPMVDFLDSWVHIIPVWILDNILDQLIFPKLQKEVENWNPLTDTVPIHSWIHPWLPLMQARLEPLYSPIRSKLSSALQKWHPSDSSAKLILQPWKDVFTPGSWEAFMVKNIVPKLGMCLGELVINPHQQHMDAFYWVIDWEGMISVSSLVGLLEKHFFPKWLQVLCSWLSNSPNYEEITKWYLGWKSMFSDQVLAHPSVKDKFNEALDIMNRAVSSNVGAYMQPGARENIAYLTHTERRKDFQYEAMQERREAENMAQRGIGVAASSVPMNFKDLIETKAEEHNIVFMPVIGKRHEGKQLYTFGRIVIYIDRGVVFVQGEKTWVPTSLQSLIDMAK

effect of a mutation on the interaction | Variant
with no effect | I462S
with no effect | F174V
disrupting interaction strength | A463P
with no effect | N171K

Variants of: B3
Conditions: with KRT40, Q6A162
Remark: another data set of the same source

effect of a mutation on the interaction | Variant
disrupting interaction strength | I462S
with no effect | F249L
with no effect | N21S
disrupting interaction strength | A463P
with no effect | T552S
with no effect | V523F

Variants of: B3
Conditions: with tfp11_human TFIP11, Q9UBB9
Remark: another data set of the same source

effect of a mutation on the interaction | Variant
disrupting interaction strength | I462S
with no effect | F249L
with no effect | N21S
with no effect | T552S
with no effect | V523F

Variants of: B3
Conditions: with goga2_human GOLGA2, Q08379
Chain of goga2_human GOLGA2, Q08379 (Q08379 whole entry): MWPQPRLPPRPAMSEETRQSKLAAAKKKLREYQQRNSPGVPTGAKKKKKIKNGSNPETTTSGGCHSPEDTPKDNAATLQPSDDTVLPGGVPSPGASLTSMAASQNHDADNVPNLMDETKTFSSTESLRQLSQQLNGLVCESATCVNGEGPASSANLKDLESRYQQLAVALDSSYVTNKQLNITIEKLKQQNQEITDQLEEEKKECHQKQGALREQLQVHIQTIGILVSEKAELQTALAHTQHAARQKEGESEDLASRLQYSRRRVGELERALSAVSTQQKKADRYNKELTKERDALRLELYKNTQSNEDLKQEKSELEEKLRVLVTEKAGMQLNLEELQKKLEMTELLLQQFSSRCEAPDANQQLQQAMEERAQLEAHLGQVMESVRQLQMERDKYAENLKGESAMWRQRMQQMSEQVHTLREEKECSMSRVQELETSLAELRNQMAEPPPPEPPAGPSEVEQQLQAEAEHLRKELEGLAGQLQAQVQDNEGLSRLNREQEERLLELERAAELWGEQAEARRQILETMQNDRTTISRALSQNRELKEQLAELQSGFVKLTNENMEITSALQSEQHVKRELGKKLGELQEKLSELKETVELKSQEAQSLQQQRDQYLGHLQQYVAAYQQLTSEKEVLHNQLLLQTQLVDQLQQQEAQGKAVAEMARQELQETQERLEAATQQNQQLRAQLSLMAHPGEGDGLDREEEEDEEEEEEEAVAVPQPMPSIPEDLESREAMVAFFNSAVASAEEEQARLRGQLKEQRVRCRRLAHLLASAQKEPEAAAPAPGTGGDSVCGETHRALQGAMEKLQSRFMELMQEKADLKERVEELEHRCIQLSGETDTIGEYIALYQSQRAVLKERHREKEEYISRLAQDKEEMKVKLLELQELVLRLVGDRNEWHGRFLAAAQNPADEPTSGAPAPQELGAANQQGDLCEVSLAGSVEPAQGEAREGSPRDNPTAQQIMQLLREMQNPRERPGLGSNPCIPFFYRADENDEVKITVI

effect of a mutation on the interaction | Variant
with no effect | I462S
with no effect | F174V
with no effect | F249L
with no effect | N21S
with no effect | A463P
with no effect | T552S
disrupting interaction strength | N171K
with no effect | V523F

Variants of: B3
Conditions: with KRT15, P19012
Remark: another data set of the same source

effect of a mutation on the interaction | Variant
with no effect | F249L
with no effect | N21S
with no effect | T552S
with no effect | V523F

Variants of: B3
Conditions: with k1h1_human KRT31, Q15323
Remark: another data set of the same source

effect of a mutation on the interaction | Variant
with no effect | F249L
with no effect | N21S
with no effect | T552S
with no effect | V523F
